Laboratory results taken from US20250164487, “METHOD FOR […] ANALYTE USING POLYNUCLEOTIDE” (NATIONAL UNIVERSITY CORPORATION TOKYO UNIVERSITY OF …, published 2025).

What was measured:
[1] = biological target: T1, SARS-CoV-2 spike protein receptor-binding domain (RBD) (SARS-CoV-2, UniProt P0DTC2 P0DTC2:319-541)
BSA = BSA (UniProt P02769 P02769:25-607)
[2] = biological target: T1, SARS-CoV-2 spike protein …; experiment: […]; PBS pH 7.4, room temperature

BSA, sequence (P02769 25-607, one chain of several): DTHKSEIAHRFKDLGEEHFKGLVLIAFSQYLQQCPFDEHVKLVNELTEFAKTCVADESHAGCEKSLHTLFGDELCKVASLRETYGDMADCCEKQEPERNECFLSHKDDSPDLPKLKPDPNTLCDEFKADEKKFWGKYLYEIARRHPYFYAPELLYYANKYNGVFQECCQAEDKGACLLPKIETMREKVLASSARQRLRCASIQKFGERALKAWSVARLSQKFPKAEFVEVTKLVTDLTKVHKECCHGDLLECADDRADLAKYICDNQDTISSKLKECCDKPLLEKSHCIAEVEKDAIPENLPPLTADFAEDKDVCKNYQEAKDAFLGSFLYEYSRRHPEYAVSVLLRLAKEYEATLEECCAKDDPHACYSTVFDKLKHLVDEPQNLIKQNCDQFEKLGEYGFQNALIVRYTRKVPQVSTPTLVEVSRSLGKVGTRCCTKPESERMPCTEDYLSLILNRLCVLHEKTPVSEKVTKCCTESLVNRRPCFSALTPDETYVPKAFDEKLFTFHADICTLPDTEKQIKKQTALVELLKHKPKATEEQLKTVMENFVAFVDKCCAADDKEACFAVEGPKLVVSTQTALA

Row | Binder | binding result [1] | binding result (BSA) | Kd [2] [nM]
1 | AGGGGCTGCTCGGGATTGCGGATATGGA (ssDNA) [RBD-45] | binds |  | 
2 | GGGGCTGCTCGGGATTGCGGATATGG (ssDNA) [RBD-46] |  | no binding | 34.7
